From patent US20210054055A1 (UNIVERSITY OF VERMONT AND STATE AGRICULTURAL COLLEGE, published 2021)
Where two headings read alike, the source gives them in different places.

T1: MR766
T1 envelope protein E: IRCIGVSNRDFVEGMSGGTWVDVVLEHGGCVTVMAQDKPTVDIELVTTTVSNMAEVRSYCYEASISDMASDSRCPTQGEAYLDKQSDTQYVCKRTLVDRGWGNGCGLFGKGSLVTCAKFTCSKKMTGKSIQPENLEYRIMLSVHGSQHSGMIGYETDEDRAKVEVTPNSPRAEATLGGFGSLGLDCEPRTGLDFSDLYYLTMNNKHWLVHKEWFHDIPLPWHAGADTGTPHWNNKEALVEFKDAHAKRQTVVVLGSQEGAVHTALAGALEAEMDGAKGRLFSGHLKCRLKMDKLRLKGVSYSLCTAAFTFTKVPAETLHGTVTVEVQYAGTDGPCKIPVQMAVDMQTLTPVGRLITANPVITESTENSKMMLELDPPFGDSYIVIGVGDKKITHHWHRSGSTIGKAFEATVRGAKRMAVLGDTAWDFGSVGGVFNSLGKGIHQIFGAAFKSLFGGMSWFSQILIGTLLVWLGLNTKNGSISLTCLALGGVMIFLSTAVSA

B1: Anti-ZIKV clone DT168(A)-D1_G-9E (G9E) (antibody, V domains shown)
VH: EVQLVESGGGVVQPGRSLRLSCVASGFAFSNYHMHWVRQAPGKGLEWVAIIWDDGSDQYYADSVKGRFTISRDNSKNTLFLQMNRLRAEDTALYYCVGGSSAYNGDNGWREAASLDDWGQGTLVTVSS
VL: QSALTQPASVSGSPGQSITIFCSGSSNDVGGYNYVSWYQQYPGKVPKLLIYDVNSRPSGVSNRFSGSKSGNTASLTISGLQAEDEADYYCSSYTSRRTWVFGGGTIVTVL
notes: also called ZV2; G9E mAb
B2: Anti-ZIKV clone DT168(A)-D1_A-9E (A9E) (antibody, V domains shown)
VH: EVQLLESGGGLVQAGGSLRLSCAASGFTFDTYAMSWVRQPPGKGLEWVSAISTGGGSKYYADSVKGRLTISRDNSQNTLYLQMSSLRADDTAVYYCARSDFWRSGRYYYYMDVWGRGTTVTVSS
VL: QSALTQPASVSASPGQSITISCTGTHFDIVDYDYLSWYQQHPGNAPKLLIYGVSNRPSGVSSRFSGSKSGNTASLTISGLQAEDEGDYYCSSYSISSTLLVFGGGTKLSV
notes: also called ZV1; A9E mAb

Assays:
[1] = target: T2, ZIKV recombinant E (ZIKV E80), recombinantly expressed monomeric ectodomain of ZIKV E protein (Zika virus, UniProt A0A024B7W1 291-694)
[2] = target: T3, Zika virus (ZIKV) virions, envelope protein E (Zika virus, UniProt A0A024B7W1 291-794)
[3] = target: T2, ZIKV recombinant E (ZIKV E80), …; remark: listed apart in the source
[4] = target: T3, Zika virus (ZIKV) virions, envelope …; remark: listed apart in the source
[5] = target: T3, Zika virus (ZIKV) virions, envelope …; remark: listed apart in the source
[6] = target: T3, Zika virus (ZIKV) virions, envelope …; remark: listed apart in the source
[7] = target: T2, ZIKV recombinant E (ZIKV E80), …; remark: listed apart in the source
[8] = target: T3, Zika virus (ZIKV) virions, envelope …; remark: listed apart in the source
[9] = target: T4, Dengue virus serotype 1 (DENV1) virions, envelope protein E (Dengue virus 1, UniProt P17763 281-775); experiment: antigen capture ELISA
T4 construct: domain: envelope protein E

[10] = target: T5, ZVEDI, recombinant ZIKV E domain I (Zika virus, UniProt A0A024B7W1 291-585); experiment: direct antigen coating ELISA
[11] = target: ZVEDIII, recombinant ZIKV E domain III (Zika virus, UniProt A0A024B7W1 586-693); experiment: direct antigen coating ELISA
H/PF/2013 = H/PF/2013 (Zika virus); experiment: cell-based or functional assay
Dakar = Dakar (Zika virus); experiment: cell-based or functional assay
MR766 = target: T1, MR766; experiment: cell-based or functional assay
[12] = target: ZIKV/2015/Paraiba, envelope protein E (Zika virus strain ZIKV/2015/Paraiba); experiment: cell-based or functional assay
[13] = target: T2, ZIKV recombinant E (ZIKV E80), …; experiment: direct antigen coating ELISA, 50 ng recombinant antigen per well; target ZIKV E80
[14] = target: T5, ZVEDI, recombinant ZIKV E domain I; experiment: direct antigen coating ELISA, 50 ng recombinant antigen per well; target ZVEDI (domain I)

Sequence of ZVEDIII, recombinant ZIKV E domain III (A0A024B7W1 586-693 limits assumed): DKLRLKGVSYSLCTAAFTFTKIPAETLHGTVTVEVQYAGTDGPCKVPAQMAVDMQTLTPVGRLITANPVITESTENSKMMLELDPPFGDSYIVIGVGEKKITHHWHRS
T4 sequence (P17763 281-775 limits assumed): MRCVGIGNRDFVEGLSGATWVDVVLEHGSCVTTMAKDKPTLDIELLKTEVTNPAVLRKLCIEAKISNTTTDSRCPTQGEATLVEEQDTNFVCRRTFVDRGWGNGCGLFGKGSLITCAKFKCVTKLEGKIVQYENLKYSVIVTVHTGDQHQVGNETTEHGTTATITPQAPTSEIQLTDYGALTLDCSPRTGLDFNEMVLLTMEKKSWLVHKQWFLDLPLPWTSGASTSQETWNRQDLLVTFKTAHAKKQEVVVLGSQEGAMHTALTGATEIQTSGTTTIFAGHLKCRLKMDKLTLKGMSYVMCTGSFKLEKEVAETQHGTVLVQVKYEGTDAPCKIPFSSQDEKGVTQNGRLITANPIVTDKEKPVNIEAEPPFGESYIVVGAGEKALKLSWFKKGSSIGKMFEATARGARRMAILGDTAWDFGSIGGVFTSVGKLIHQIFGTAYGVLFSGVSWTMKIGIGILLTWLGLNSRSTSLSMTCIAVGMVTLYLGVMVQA

Row | Binder | EC50 (read off the curve) [1] [µg/mL] | EC50 (read off the curve) [2] [µg/mL] | EC50 (read off the curve) [3] [µg/mL] | IC50 (read off the curve) [4] [µg/mL] | IC50 (read off the curve) [5] [µg/mL] | EC50 (read off the curve) [6] [µg/mL] | EC50 (read off the curve) [7] [µg/mL] | IC50 (read off the curve) [8] [µg/mL] | binding result [9] | binding result [10] | binding result [11] | FRNT50 (focus reduction neutralization on Vero cells) (H/PF/2013) [ng/mL] | FRNT50 (focus reduction neutralization on Vero cells) (Dakar) [ng/mL] | FRNT50 (focus reduction neutralization on Vero cells) (MR766) [ng/mL] | EC50, Vero-based neutralization assay against ZIKA/2015/Paraiba [12] [µg/mL] | EC50 [13] [µg/mL] | EC50 [14] [µg/mL]
1 | B1 | ~0.3 | ~0.03 | ~0.2 | ~0.05 | ~0.4 | ~0.03 | ~0.2 | ~0.05 | no binding | no binding | no binding | 4.7 | 14.6 | 2.3 |  |  | 
2 | B2 |  | ~0.02 |  | ~0.07 | ~0.008 | ~0.02 |  | ~0.06 | no binding |  | no binding | 4.7 | 21.7 | 5.3 | 0.005 to 0.01 | 0.04 | 2.5
